Data as given in the nanobody polyreactivity screen of Harvey et al. (2022).

Test: yeast display, Sf9 membrane polyspecificity reagent, FACS + sequencing; frameworks hold sequencing errors
Summary of the method: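 After 36–48 hours of galactose induction, yeast (Saccharomyces cerevisiae BJ5465) displaying a synthetic nanobody library were stained at 4 °C for 1 hour with 10% biotinylated, detergent-solubilized Sf9 membrane reagent. Streptavidin microbeads enriched the stained cells before FACS sorting into low and high (top ~1%) gates on anti-HA and streptavidin fluorescence. Each clone's polyreactivity label reflects its gate of origin.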

Sequence	polyreactivity (PSR sort gate)
QVQLVESGGGLVQAGGSIGLNCAASVSSYEPYVMGWYRQATGKEMELVGAIYESGDTTYYADSVKGRFTISRDNAKNTVYLQMNSLKPEDSAVYYCNAEDPSIYGWWRVGEYDYWGQGTQVTVSS	low polyreactivity
QVQLVESGGGLVQAGGSIRLSCAASGFTIFLNAMGWYRQAPGKERELVAAITVSGSSTYYADSVKGRFTISRDNAKNTVYLQMNSLKPEETAVYYCNAEIYSPYYTYDYWGQGTQVTVSS	low polyreactivity
QVQLVESGGGLVQAGGSIRLSCAASGGTFSAYAMGWYRQAPGKERELVAAINISGGRTYYADSVKGRFTISRDNAKNTVYLQMNSLKPEDTAVYYCAAKNFRDRGNDYWGQGTQVTVSS	high polyreactivity
QVQLVESGGGLVQAGGSIRLSCAASGITFAWNAMGWYRQAPGKERELVAAITKRGGSTYYADSVKGRFTISRDNAKNTVYLQMNSLKPEYTAFYYCAARGYISRYDARANAVQGNYWGQGTQVTVSS	high polyreactivity
QVQLVESGGGLVQAGGSIRLSCAASGRIFYAYTMGWYRQAPVKERELVAAIRRRGTTYYADSVKGRFTISRDNAKNTVYLQMNSLKPDDTAVYYCAKDALGYRTSSALLGDYWGQGTQVTVSS	high polyreactivity
QVQLVESGGGLVQAGGSIRLSCAASGRTFDSNAIGWYRQAAGKEWQLVAAISCSGDTTYDADTVKGRFTISRDNAKNTVYLQINILKPEDTAVYYCAADHDSYDSGYDYWGQGTQGTVSS	low polyreactivity
QVQLVESGGGLVQAGGSIRLSCAASGRTFPAYAMGWYRQAPGKERELVAAISYSGGRTRYADSVKGRFTISRDNAKYTVYLQMNSLKPEDTAVYYCNRVIPTQSLRDYYWGQGTQVTVSS	high polyreactivity
QVQLVESGGGLVQAGGSIRLSCAASGRTFYGYAMGRYRQAPGKEREFDAAISVGGVSTYYADSVKGRFTISRDNAKNTVYLQMNSLKPEDTAVYYCAAYTRYWSYGYWGQGTQVTVSS	high polyreactivity
QVQLVESGGGLVQAGGSIRLSCAASGSIFYYGLGWYRQAPGKERELVAAITRGGSTYYADSVKGRFTISRDNAKNTVYLQMNSLKPEDTAVYYCAKYPVGGYDYWGQGTQVTVSS	low polyreactivity
QVQLVESGGGLVQAGGSIRLSCAASGSLFEPYFMGWYRQAPGKERELVAAIRQTGGSTYYADSVKGRFTISRDTAKNTVYLQMNSLKPEDTAVYYCAKDSQTARDFDYWGQGTQGTVSS	low polyreactivity
QVQLVESGGGLVQAGGSIRLSCAASGSTFRYYTMGWYRQAPGKERELVATITRDGRTYYADSVKGRFTISRDNAKNTVYLQMYSLKPEDTAVYYCNVRRAFSGWRGYDYWGQGTQVTVSS	high polyreactivity
QVQLVESGGGLVQAGGSIRLSCAASGYTFVTNAMGWYRPAPGKERELVAAITTVGSTNYADSGKGRFTISRDNAKNTVYLQMNSLKPEDTAVYYCNANWYEWYGWGQGTQVTVSS	low polyreactivity
QVQLVESGGGLVQAGGSIRLTCAASGTIFPYYAKGWYRQAPGKERELVAAISDSGDSTYYADSVKGRFTISRDNAKNTVYLQMNSLKPEDTAVYYCAADQTSSYYDPWGDYWGQGTQVTVSS	low polyreactivity
QVQLVESGGGLVQAGGSLGLSCAASGFIFYAYVMGRYRQAPGKERELVAAISRNGGSTYYADSVKGRFTISRDNAKKSVYLQMNSLKPEDTAVYYCAALSYYRYSQEDDYWGQGTQVTVSS	high polyreactivity
QVQLVESGGGLVQAGGSLGLSCAASGRIFSRNAMGWYRQATGKEREFVAAISRRGTSTYYADSVKGRFTISRDNAMNTVYLQMNSLNPESTAVYYCNVDQWASQRYSRYDYWGQGTQVTVSW	high polyreactivity
QVQLVESGGGLVQAGGSLGLSCAASGRTFSQYAMGWYRQAPGKERELVAAISWSGGYTYYADSVKGRFTISRDNAKNTVYLQMNSLKPEDTAVYYCAAVGKGSARSSYPVLYDYWGQGTQVTVSS	low polyreactivity
QVQLVESGGGLVQAGGSLGLSCAASGRTFYRNAMGWYRQAPGIERELVAPITNGGRTYYADSVKGRFTISRDNAKNTVNLQMNSLKPEDTAVYYCNALDAKLSEYEYWGQGTEVTVSS	low polyreactivity
QVQLVESGGGLVQAGGSLGLSCAASGSIFRGYAMGWYIQAPGKERELVAAITSSGGSTNYADSVKGRFTISRDNAKNTVYLQMNSLKPEDTAVYYCAAGVIREKYYIWSDYEYDYWGQGTQVNVSS	low polyreactivity
QVQLVESGGGLVQAGGSLGLSCAASGSTFAGNTMGWYRQAPGKERELVATITRGDSTNYADSVKGRFTISRDNAKNTVYLQMNSLIPEDTAVYYCAAVGRRRTTVGRYVRMDYWGQGTQVTVSS	low polyreactivity
QVQLVESGGGLVQAGGSLGLSCAASGYIFGIYAMGWYRQAAGKERELVAAISSDSTYYADSVKGRFTISRDNAKNTVYLQMNSLKPEDTAVYYCAPYWFNQDYEFEYWGQGTQVTVSS	high polyreactivity
QVQLVESGGGLVQAGGSLHLSCAASGFTFGRYAMGWFRQAPGKERELVAAISRRGGSTYYADSVKGRFTISRDNANNTVYLQMNSLKPEDTAVYYCNVDKYRIVGFHSPYDYWVQGTQVTVSS	high polyreactivity
QVQLVESGGGLVQAGGSLLLICAASGRTFPYNAMGWYRQAPGKEREFVAAISVGGGSTYADSVKGRFTISRDNAKNTVYLQMNSLKPEDTAVYYCAAAYTKLYYYWGQGTQVTVSS	low polyreactivity

Sequence	polyreactivity (PSR sort gate)
QVQLVESGGGLVQAGGSLLLSCAASGFIFGLNAMGWYRQAPGKERELVAAIRSASSTNYADSVKGRFTISRDNAKNTVYLQMNSLKPEDTAVYYCAAEYVTYQQGFWGYDYWGQGTQVTVSS	low polyreactivity
QVQLVESGGGLVQAGGSLLLSCAASGGTFRNNAMGWYRQAPVKERELVAAISSSGTSTYYADSVKGRFTISRDNVKNTVYLQMNSLKPEDTAVYYCNADALGSPWWDHMDYWGQGTQVTVSS	low polyreactivity
QVQLVESGGGLVQAGGSLLLSCAASGGTFYYYAMGWYRQAPGKERELVASISSRGGSTYYADSVKGRFTISRDNAKNTVYLQMNSLKPEDTAVYYCAARSLYSGFGYWGQGTQVTVSS	high polyreactivity
QVQLVESGGGLVQAGGSLLLSCAASGITFGVYAMGWYRQAPGKERELVAAISVNGGSTYYADSVKGRFTISRDNAKNTVYLQMNSLNPQDTAVYSCAADVLYYIDDDSIIEYDYWGQGTQVTVSS	low polyreactivity
QVQLVESGGGLVQAGGSLLLSCAASGITFSYYAMGWYRQAPGKERELVAAISRTGTSTYYADSVKGRFTISRDNAKNTVYLQMKSLKPEDTAVYYCAAVPRHPYHDKYDYWGQGTQVTVSS	high polyreactivity
QVQLVESGGGLVQAGGSLLLSCAASGITSYYYAMGGYRQAPGKERELVAAITRGGRTKYADSVKGRFTISRDNAKNTVYLQMNSLKPEDTAVYYCAADVWGQGTQVTVSS	high polyreactivity
QVQLVESGGGLVQAGGSLLLSCAASGLIFDPYAMGWYRQAPGKERELVADISSGGSTNYADSVKGRFTISRDNAKNTVYLQMNSLKPEDTAVYYCNKTIILDGYYFSLTLYDSWGQGTQVTVSS	low polyreactivity
QVQLVESGGGLVQAGGSLLLSCAASGLTFRRYNMGWYRQAPGKERELVAAISYSGGSTYYADSVKGRFTISRDNAKNTVYLQMNSLKPEDTAVYYCNDRYARVKQYGYWGQGTQVTVSS	low polyreactivity
QVQLVESGGGLVQAGGSLLLSCAASGRIFQFYAMGWYRQAPGKERELVAGITTSGGSTYYADSVKGRFTISRDTAKNTVYLQMNSLKPEDTAVYYCAKRYYSSQFSKFGYWGQGSQVTVSS	high polyreactivity
QVQLVESGGGLVQAGGSLLLSCAASGRIFYGNAMGWYRQAPGKERELVAPISSGTSTNYADSVKGRFTISRDNGKNTVYLQMNSLKPEDTAVYYCAAGSYSRYLYSLYFDFDYWGQGTQVTVSS	low polyreactivity
QVQLVESGGGLVQAGGSLLLSCAASGRIIGYYAMGLYRQAPVKERELVAAISRRGGSTYYADSVKGRFTISRDNAKNTVYLQINSLKPEDTAVYYCNADRVLTRPRYDYWGQGTQVTVSS	low polyreactivity
QVQLVESGGGLVQAGGSLLLSCAASGRTFAPYAMGWYRQAPGKERELVAAISSGGGNTYYADSVKGRFTISRDNAKNTVYLQMNSMKPEDTAVYYCAKPRARQDFDYWGQGTKVTVSS	high polyreactivity
QVQLVESGGGLVQAGGSLLLSCAASGRTFWPYAMGWYRQAPGKERELVAAITSDGSTTYADSVTGRFTISRDNAKNTVYLQMNSLTPEDTAVYFCAAYGYYYYQTIPMDYWGQGTQVTVSS	low polyreactivity
QVQLVESGGGLVQAGGSLLLSCAASGSIFGWYVMGWYRQEPGKERELVAAISSVGSTYYADSVKGRFTISRDNAKNTVYLQMNSLKPEDTAVYYCATDSNPKWDYALDSWGQGTQVTVSS	low polyreactivity
QVQLVESGGGLVQAGGSLLLSCAASGSIFYSNAMAWYRQAPGKERELVATITWSGGRTYYADSVKGRFTISRDNAKNTVYLQMNSLKPDDTAVYYCAAVSIYWGQGTQVTVSS	low polyreactivity
QVQLVESGGGLVQAGGSLLLSCAASGSILSKNAMGWYRQAPGKDRELVAAITWSGGSTYYADSVKGRFTISRDNAKNTVYLQMNSLKPEDTADYSCAADLDWSPQFGLPYDYWGQGTQVTVSS	low polyreactivity
QVQLVESGGGLVQAGGSLLLSCAASGSTFYYNAMGWYRQATGKERELVARISRSGGSTYADSVKGRFTISRDNAKNTVYLQMNSLKPEDTAVYYCNADAYGTPEFTSYAVRYDYWGQGTQVTVSS	low polyreactivity
QVQLVESGGGLVQAGGSLLLSCAASGSTLDPNVMGWYRPAPGKERELVAAITSGGSTYYADSVKGRFTISRDNAKNTVYLQMNSLKPEDTAVYYCNKDKGWLAHSRIWLWYDYWGQGTQVTVSS	low polyreactivity
QVQLVESGGGLVQAGGSLLLSCAASGSTSQPYAMGWYRQAPGKERELVASITNGGITYYADSVKGRFTISRDNAKNTVYLQLNSLKPEVTAVYYCNADNVFEGYDRRSARACYRYYYWGQGTQVTVSS	low polyreactivity
QVQLVESGGGLVQAGGSLLLSCAPSGSTIPSYAMGWYRQSPGKERELVASITYSDGTTRYADSVKGRFTISRDNAKNTVYLQMNSLKPEDTAVYYCNAVYYREGMDYWGQGTQVTVSS	low polyreactivity
QVQLVESGGGLVQAGGSLLLSSAASGRTFWMYAMGWNRQAPGKESELVAGITWRGGSTYYADSVKGRFTISRDIAKNTVYLQMNSQKPEDTAVYYFAAEFWVSRSIWVYYYWGQGTQVTVSS	high polyreactivity
